The values that follow come from paper PMC10995120.

pKd: −log10 of the molar value.

This test has as its target GFP-CD16a (Homo sapiens) (UniProt P08637). As to the kind of experiment: SPR. In general terms: SPR reads the build-up and loss of mass on a sensor chip optically.
Sequence of UniProt P08637 (P08637 other isoform, or with tags, fused parts or gaps): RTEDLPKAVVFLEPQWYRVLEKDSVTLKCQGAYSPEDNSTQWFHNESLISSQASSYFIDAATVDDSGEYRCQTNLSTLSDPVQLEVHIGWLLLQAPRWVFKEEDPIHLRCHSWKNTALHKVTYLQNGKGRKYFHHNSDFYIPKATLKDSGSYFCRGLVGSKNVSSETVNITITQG

On to rituximab, for which the pKd – broadly, the negative decadic logarithm of the Kd, by convention in mol/L – is 6.44.
